# According to publication PMC11169542, “A probe for NIR-II imaging and multimodal analysis of early Alzheimer’s disease by targeting CTGF” (Nature Communications, 2024):
# Ends that are not written are not given here.
# T1: recombinant Human CTGF protein (connective tissue growth factor) (human, UniProt P29279 27-349)
# T1 construct: connective tissue growth factor (CTGF), human, recombinant; source: bought: Abcam, Cat#ab283457
# T1 sequence (looked up): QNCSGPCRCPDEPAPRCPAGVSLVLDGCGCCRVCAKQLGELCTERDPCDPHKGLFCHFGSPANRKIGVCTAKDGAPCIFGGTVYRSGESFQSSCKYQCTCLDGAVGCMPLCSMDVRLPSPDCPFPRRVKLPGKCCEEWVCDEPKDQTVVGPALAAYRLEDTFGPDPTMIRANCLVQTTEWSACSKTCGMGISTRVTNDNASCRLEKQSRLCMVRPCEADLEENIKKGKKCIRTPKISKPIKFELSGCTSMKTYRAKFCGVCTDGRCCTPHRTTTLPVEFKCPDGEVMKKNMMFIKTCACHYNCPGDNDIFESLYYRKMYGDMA
# Target: T1, recombinant Human CTGF protein …
# Assay: SPR; BIAcore 8K+; recombinant human CTGF immobilised on a CM5 chip by amine coupling; eluent PBS with 0.005% Tween 20; DAG 0.5-16 μM or DGC 0.01-0.16 μM; 25 °C
# Details: both partners purified
row,Binder,Kd [µM]
1,"CDAGRKQKC (also: cyclic peptide, ring not given here, CTGF-targeting peptide DAG; also called free DAG; DAG peptide; source: synthetic peptide (solid-phase method, Beijing Scilight Biotechnology LLC, purity 95%)) [cyclic peptide Cys-Asp-Ala-Gly-Arg-Lys-Gln-Lys-Cys (DAG)]",22.3
2,"CDAGRKQKC (other, also: Au26 nanocluster bound via Cys sulfhydryl Au-S bonds, cyclic, ring closure not given here, DAG peptide, eight copies on one Au26 gold nanocluster; One Au26 gold nanocluster coated by eight DAG peptides (by MALDI-TOF-MS); also called CTGF-targeting peptide-coated gold nanocluster; source: synthesised from DAG peptide and HAuCl4 at 55 °C, purified by ultrafiltration (MWCO 3 kDa)) [DGC probe (peptide-coated gold nanocluster, Au26DAG8)]",0.0219
